Drawing on a protein production outcome set (Wang et al. 2014), this text covers protein production for 21 sequences.

A short description of the series: label from the status in PepcDB records.

In the case of “MEATNLPQPSAPADLGALQRPSYFRRLGPFDWLFAALLALGAGYAFSRYGAYMDGYERGILVAAVPAFAWLGWTWKPVRTLMIGLAVLSLFAIAQYSGPNGPELARADRVFFLKYFLASQSAILWMSALIFLSTLFFWAGLAARWPAGGAIGSKLCWAAVVLGLTGMLVRWYESYLVGADIGHIPISNLYEVFILFTLITSLFYLYYEQRYRTRALGPFVMLVVSAAVGFLLWYTVSRGAQEIQPLVPALQSWWMKIHVPANFIGYGTFALAAMVGAAYLLKEHGVLADRLPSLEVLDDVMYKAITVGFAFFTIATILGALWAADAWGGYWSWDPKETWALIVWLNYAAWLHMRLMKGLRGRMAAWWALVGLLVTTFAFLGVNMFLSGLHSYGEL”, the protein production entry is “failed”.
For the sequence “MEAVDLAFANYAERFARSCKGDGWRRLVERAIRLYLTPVLGKKALPAINRTDVVSVFDNMPADQVANRRNVFAVLRRLFRWAVSRGDLDRSLEHHHHHH”, the protein production entry is recorded as “failed”.
“MEAVTGYVKRKDLGRAVVQTDLGNPKAWEIRLTILTDEVLSENQKLATQKIDPSCAVDVSIGHGASDSPRGSSLAINEVRCECSSGISESDLETRGLAMIIDFVMRVASLERSVMNKRDLRFARVEKRFPKGKTKLKA”: the protein production entry is given as “failed”.
Consider “MEAVVLPWQIFGVRELPVERGVTMKGPRLFRAPGHVPTGLKCHPDQEHMIYPLGCTVLIQAINTKEQNFLQGHGNNVSCLAISRSGEYIASGQVTFMGFKADIILWDYKNRELLARLSLHKGKIEALAFSPNDLYLVSLGGPDDGSVVVWSIAKRDAICGSPAAGLNVGNATNVIFSRCRDEMFMTAGNGTIRVWELDLPNRKIWPTECQTGQLKRIVMSIGVDDDDSFFYLGTTTGDILKMNPRTKLLTDVGPAKDKFSLGVSAIRCLKMGGLLVGSGAGLLVFCKSPGYKPIKKIQLQGGITSITLRGEGHQFLVGTEESHIYRVSFTDFKETLIATCHFDAVKDIVFPFGTAELFATCAKKDIRVWHTSSNRELLRITVPNMTCHGIDFMRDGKSIISAWNDGKIRAFAPETGRLMYVINNAHRIGVTAIATTSDCKRVISGGGEGEVRVWQIGCQTQKLEEALKEHKSSVSCIRVKRNNEECVTASTDGTCIIWDLVRLRRNQMILANTLFQCVCYHPEEFQIITSGTDRKIAYWEVFDGTVIRELEGSLSGSINGMDITQEGVHFVTGGNDHLVKVWDYNEGEVTHVGVGHSGNITRIRISPGNQYIVSVSADGAILRWKYPYTS”, for which the protein production result is recorded as “failed”.
In the case of “MEAVVVEREAKGMKEIAIQEKDLTLQWRGNTGKLVKVRLKNTRAMEMWYNKQITEENIQEITTLNIIKNGKSLALEVYPEKSIYVKPNLGRINVPVFFIKTPINRGVFEEIFGETLKA”, the protein production result is “not failed”.
Consider “MECRECTNRNKLDFEFTMAFQPIVNLETQTIFAHEALVRGLNNESAQAIFQHINDSNRYLFDQSCRTTAIRLAAELHIPCFLSINFLPNAVYEPERCIRTTLEAAETYGFPIEQIIFEITESEQITDLVHLRKIVEYYRARGFKTAIDDFGAGYAGLNLLSEIQTDLIKLDMALIRGIDQDKVRQAIVKGVLQVAGELSSLVIAEGIETQAELTTLQGLGINLFQGFYFAKPTFQSLAQIPSDRFVNVA”, for which the protein production entry is “failed”.
On to “MEDDVTTTERLPAPPLDTASKRVGFISLGCPKALVDSERILTQLRAEGYEVAPSYEGADAVIVNTCGFITPAVEESLSAIGEALDATGKVIVTGCLGERPEKIMERHPKVAAITGSEAVDDVMGHVRELLPIDQGAFTGLLPVAAPGMRAGVETPQRENTRHGDVFAPSVKLTPRHYAYVKVAEGCNHTCAFCIIPKLRGLQVSRDAGAVLYEAYRLIAGGTKELMIIAQDTSAYGVDLRYRESEFQGEQVRAHLTDLAVKLGEMGAWVRMHYVYPYPHVDRVVELMAQGKVLPYLDIPLQHASPKILKLMRRPGAGKQLDTIRRWREICPELVIRSTFIVGFPGETEEDFQELLQFLEDARLDRVGAFPYSDIEEADANALPGAVPEEVKQERLARFMEVAQRISTEKLSEKVGRVMDVIIDEFNDDEDDQPGTRLIGRTKGDAPGIDGQVYLYAGDFAGLVKIGDIVRARIEDSDEYDLFGEVIEKPEWKPNVPQLGHFGKH”, for which the protein production result is given as “failed”.
In the case of “MEDKTLGLLLDVVGELFSDEISIAVSNTKEYIYYRPSKRIDLKISAGDPIKEGTIAHKAMVTNQKTSEFMNRDVFGIPYHGMAVPFSNNGKLEGCVTAIYPALTDGKSVVTLKTTDGWIPVPFSKVMYLEAKDKKTYVNAEELTGTHKYSLQEFEYLLPKDSFIRCHRSFIVNVNHIKAIYPDTHSTFLLSMDNGERVPVSQSYASYFRKLLGF”, the protein production entry is listed as “not failed”.
As for “MEDLLPTLPSLDHRDALPNALASPVLPAGQSDAQLVRTWLDTKYAAGLGIRASTRAQYALEAHRLLWYAHALGRPLASWQVADANGYLAFLADPPAHAVGDGRVRQDSPAWRPLRGPLSEASRRQTATIVGGLFEWLVGVEALRVNPFQAVPRARSARGPGSQRRFLEAEQLAAVFDAVEARPAPTLWAQLHKARDRLLLALLFHTGLRASEVTALTWPDFERQRGRHGDFWTVRIREAKGGSDQLVPCDNVMAELARFRQLVGLSPEPRATDTMAVVPAMAGGRQRLAPLTDTLALQRRLSRPVRTRQGLYTIVRQVFEAAAVRLEASGYAEGAANLRAASTHWLRHSHATHLLRAGVPVTDVQRTLRHRDINTTRRYTHEALEDVARSIGGKLPAVLEHHHHHH”, the protein production result is “failed”.
For “MEDLVTAPTPLDKRWLTEAVRLREEHAGPLEDQEANRHARQLGGDLATRIETRALFLAERDDMTGALRHWKQGARLALLALLLMAVLSGTGLGLAALGDGQRPVNVFWALGSLLGLNLLMLLGWGMGFALSGEHGAGLGRLWLWLSERFARDAKAAHLAPALLVLLQRQRLNRWLLGLLVHGLWLLAMLTALGMLLVLLATRRYGFVWETTLLAADPFIHLTQALGALPSLLGFAVPDEAMIRASGDSLPALDVARQAWASWLLGVVLVYGLLPRLLLAGLCLWRWRQGRERLTLDLGLPGYAQLREALMPRSERIGVQDAAPQALPQFAAGQLESGSSGALLVGLELDDQRPWPPALPKSVTDAGVLDSRESRNRLLEQLSRFPPARLAIACDPRRSPDRGSLALLAELARNAGATRIWLLQAAPGQPLDAERLGDWHEALDRLGLQHADTSPLTWLEHGHD” the value was “failed”.
Regarding “MEDWWFSWLSRTNLEPSLIHEYGLSFSQNELEHEDISYFDHEFLQSMGISIAKHRLEILKLARRDRKNSPPLTSRSISRVVTAIKKTRKCLSDHVRAWIRREEESASSRALVLVPKKTSNGIGKWRGGFLKRNKRSVMPSNGNGGLEKQERLLLTNGTPCRIDSFSSPMVFDYSFKDEKLYAQDTYFEDIKWDSMFQNLKPT”, the protein production entry was “failed”.
Turning to “MEEERRDDYKFLRIQDAFKALHLHVNLIGVIVELGFSNGSDCSCTLKIVDPWYSGSGLPVKFVARTIRDLPRVESIGDIILLSRVKIVLINRKITALCNETTSSSFALFNGKHSVDSIPYQSSPKFLMREQDKNFLSNLREWMITYKFEDGS”, the protein production entry is given as “not failed”.
In the case of “MEEITDGVNNMNLATDSQKKNRIQVSNTKKPLFFYVNLAKRYMQQYNDVELSALGMAIATVVTVTEILKNNGFAVEKKIMTSTVDIKDDARGRPVQKAKIEITLVKSEKFDELMAAANEEKEDAEAQVQN”, the protein production result is recorded as “not failed”.
For “MEEKRLSAKKGLPPGTLVYTGKYREDFEIEVMNYSIEEFREFKTTDVESVLPFRDSSTPTWINITGIHRTDVVQRVGEFFGIHPLVLEDILNVHQRPKVEFFENYVFIVLKMFTYDKNLHELESEQVSLILTKNCVLMFQEKIGDVFDPVRERIRYNRGIIRKKRADYLLYSLIDALVDDYFVLLEKIDDEIDVLEEEVLERPEKETVQRTHQLKRNLVELRKTIWPLREVLSSLYRDVPPLIEKETVPYFRDVYDHTIQIADTVETFRDIVSGLLDVYLSSVSNKTNEVMKVLTIIATIFMPLTFIAGIYGMNFEYMPELRWKWGYPVVLAVMGVIAVIMVVYFKKKKWL”, the protein production result is given as “not failed”.
“MEEKVEELIDIYKQQIYSLCYKLAKTKEDAEDIFQETWIKVFSSRHQLSYVENYKKWITTICVRTFYDFYSKKKRWKDRVLDLFHKEDGGEIEFADDVNISEEFIQKVEAEMIREVIQLLNEKYKTVLVLYYYEQYSYKEMSEILNIPIGTVKYRLNYAKKQMREHLEGFVHEGR”: the protein production result is “failed”.
Regarding “MEENKPVFSIITVCYCARDIIAKTAHSVLSQTYPNIEYIVVDGASPDNTAEVVRSLSSDIRLISEPDKGLYDAMNKGLRMALGDYVWFLNAGDLLPSDDLVEAIANGIKSSPMGLPDVLYGDTMLIDATGKEKGLRRLRPPFELQWRSFADGMLVCHQAFIAKRLIAPPYNMKYRFSADFDWCIRILQAARNIVNTEMILVHSLDDRGGITYKNHKASLKERFLIMKHYYGSRKSIMKHLSFFFRRKR”, the protein production entry is listed as “failed”.
Consider “MEEPRRLGGRYELGPVLGRGGMAEVYHAHDTRLGRQVAVKTLRADLARDPSFQARFRREAQSAASLNHPAIVAVYDTGEDYIDNVSIPYIVMEYVDGSTLRELLHSGRKLLPERTLEMTIGILQALEYSHRAGIVHRDIKPANVMLTRNGQVKVMDFGIARAMGDSGMTMTQTAAVIGTAQYLSPEQAKGEQVDARSDLYSTGCLLYELLTVRPPFVGDSPVAVAYQHVREEPQAPSVFDPEITPEMDAIVLKALVKDPDYRYQSADEMRVDIEACLDGQPVGATAAMGAMAAGGYGAYPDDQPTTALRSDGGGGATTMLPPMNPDDGGYGYDERPDRRRQQPRKKNTSTIFLVLAGVLVLVGAILIGKYAFSGDGGPGNDKVPVPAFIGLSKADAQQQADNIDLVLTFKQQECEDQPKGNICAQDPKQGTDVDKESTVNLVVSTGAPKVAVPNVIDKNIDEAKKQLEDKGFEVETKQTESSQDEGTILSQNPDPGKELEKGSTVTLEVAKAEEKATVPDVVGRTCDEAKAQVESGGDLTAVCTDQPTNDPNQVGKVISTTPQSSTQVDPGSKVTIVVGKAVEKTKVPEVRGKTLAEARQILQQSGFTNVQVAQGSPGDDNAKVFASNPQPGSEVDDPAATPITLMTVPGDGGNGNGGNGNGGAIAGLPGFGD”, for which the protein production result is “failed”.
As to “MEEQVLGQSHDCETAADKSDQKLQDVTLAKTTHWGKIKAMLEEKIDELSQGLHRVASDNAALTRSLQERSEMIVKISEERSKAEADVEKLKD”, the protein production result is reported as “failed”.
“MEESDVLISLIEILKIHQKVIDYDKFKDPEDYTPAIRSLATLELMFEYLIKESNTIFENAAVIVYTIVAKHPFFNGNKRTGYEAMNFIIEDGGYGFTSTDEEMIEFIIRVATTENEMSIEEIKEWIIRHTEKILLEHHHHHH”: the protein production entry was “not failed”.
Regarding “MEESSAAKIQLLKEFKFEKILKDDTKSKIITLYGKIRNEVALLLLEKTAFDLNTIKLDQLATFLQDTKLVENNDVFHWFLSTNFQDCSTLPSVKSTLIWPASETHVYKYSSQKKPMVCETPLMYLKVTKPFIETQRGPQIQWVENILTHKAEAERIVVEDPDPLNGFIVIPDLKWDRQTMSALNLMAIVHATDIASIRDLKYKHIPLLENIRNKVLTEVPKQFSVDKNQLKMFVHYLPSYYHLHVHILHVDHETGDGSAVGRAILLDDVIDRLRNSPDGLENVNITFNIGEQHFLFQPLTNMNA”, the protein production result is on record as “not failed”.
In the case of “MEFEVEYDILVIVLVAFYILAATRIAHVIGLPPGVVEIIMGAMLAFWGVKSTEVLTLLAAIGANLLLFMAGSEIDLALLRSILPQAVIVALVSALAPLALTALLHVYLGLSLTSSLVILASLSATSVALTYLLLSSYRLVRSRLGQLALASAMLLDLSGMIMLNIATASISPSLAFYIVILLAALLLYPLLPRLGGAPFEAEIRLITMTVIILGFLSDFVGVHSVLTSFILGVIASETVRTRVQLREKLESLATGFFTPFFFIASGMSIDPGIPLHYVALALAGGVALALARTYTVYFYFRLTGSSRRSSLIAASSTAMLLTVTIIAASVGFQLGLLDSLMYSVLVWIVVGTILGSFALVKMR”, the protein production result is on record as “failed”.
